Patent US20250129170A1

Target: human EPOR on cells (293T/EPOR cells; UT-7 cells) (human) (UniProt P19235)
Test: cell-based or functional assay

Sequence of human EPOR on cells (293T/EPOR cells; UT-7 cells) (human) (P19235 25-508): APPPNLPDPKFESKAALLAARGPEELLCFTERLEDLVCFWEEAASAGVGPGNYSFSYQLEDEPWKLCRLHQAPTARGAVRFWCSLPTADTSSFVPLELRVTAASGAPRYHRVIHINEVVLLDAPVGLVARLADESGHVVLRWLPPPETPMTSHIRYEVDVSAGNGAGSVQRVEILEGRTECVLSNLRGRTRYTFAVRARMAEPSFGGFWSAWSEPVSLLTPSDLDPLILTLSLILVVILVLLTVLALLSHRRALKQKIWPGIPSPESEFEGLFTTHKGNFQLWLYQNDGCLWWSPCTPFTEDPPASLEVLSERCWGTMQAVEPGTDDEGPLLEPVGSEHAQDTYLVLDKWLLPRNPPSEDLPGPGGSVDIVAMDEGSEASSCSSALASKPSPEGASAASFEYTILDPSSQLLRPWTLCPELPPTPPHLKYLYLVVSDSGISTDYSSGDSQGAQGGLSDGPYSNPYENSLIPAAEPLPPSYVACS

Row | Substance | EPO-mediated Stat5 Phosphorylation in 293T/EPOR, Elisa
1 | IME005 (EPO-Fc, K45D) (from UniProt P01588 28-193) (Fc fusion) | 86%
2 | IME008 (EPO-Fc, R103A) (from UniProt P01588 28-193) (Fc fusion) | 30%
3 | IME009 (EPO-Fc, K45D/R103A) (from UniProt P01588 28-193) (Fc fusion) | 13%
4 | IME007 (EPO-Fc, R150E) (from UniProt P01588 28-193) (Fc fusion) | 27%
5 | IME049 (EPO-HSA, K20A/K45A/K52A/K140A/K152A/K154A) (from UniProt P01588 28-193) | 15%
6 | IME030 (HSA-HBP, helix B peptide fused to albumin) | 0%
7 | IME044 (EPO-HSA, Q65A/E72R) (from UniProt P01588 28-193) | 94%
8 | IME006 (EPO-Fc, N147K) (from UniProt P01588 28-193) (Fc fusion) | 37%
9 | IME033 (EPO-Fc, E72A) (from UniProt P01588 28-193) (Fc fusion) | 75%
10 | IME034 (EPO-Fc, R76A) (from UniProt P01588 28-193) (Fc fusion) | 5%
11 | IME037 (EPO-Fc, Q58A) (from UniProt P01588 28-193) (Fc fusion) | 71%
12 | IME014 (EPO-Fc, E72R) (from UniProt P01588 28-193) (Fc fusion) | 82%
13 | IME048 (EPO-HSA, K140A/K152A/K154A) (from UniProt P01588 28-193) | 11%
14 | IME015 (EPO-Fc, R76E) (from UniProt P01588 28-193) (Fc fusion) | 27%
15 | IME046 (EPO-HSA, K20A/K45A/K52A) (from UniProt P01588 28-193) | 90%
16 | IME047 (EPO-HSA, K140A/K152A) (from UniProt P01588 28-193) | 23%
17 | IME013 (EPO-Fc, Q65A) (from UniProt P01588 28-193) (Fc fusion) | 100%
18 | IME039 (EPO-Fc, L80A) (from UniProt P01588 28-193) (Fc fusion) | 32%
19 | IME011 (EPO-Fc, R150E/R103A) (from UniProt P01588 28-193) (Fc fusion) | 5%
20 | IME012 (EPO-Fc, E62R) (from UniProt P01588 28-193) (Fc fusion) | 4%
21 | IME032 (EPO-Fc, E62A) (from UniProt P01588 28-193) (Fc fusion) | 2%
22 | IME031 (HSA-HBSP, helix B surface peptide fused to albumin) | 0%
23 | IME038 (EPO-Fc, L69A) (from UniProt P01588 28-193) (Fc fusion) | 57%
24 | IME043 (EPO-HSA, R103A) (from UniProt P01588 28-193) | 0%
25 | IME010 (EPO-Fc, N147K/R103A) (from UniProt P01588 28-193) (Fc fusion) | 5%
26 | IME045 (EPO-HSA, Q65A/E72R/N83A) (from UniProt P01588 28-193) | 105%
